Biological target: integrin αVβ6 heterodimer (integrin alpha-V, ITGAV, and integrin beta-6, ITGB6) (human (endogenous in HEK293T)) (UniProt P18564)
UniProt P18564, sequence (P18564 whole entry, looked up, one chain of several): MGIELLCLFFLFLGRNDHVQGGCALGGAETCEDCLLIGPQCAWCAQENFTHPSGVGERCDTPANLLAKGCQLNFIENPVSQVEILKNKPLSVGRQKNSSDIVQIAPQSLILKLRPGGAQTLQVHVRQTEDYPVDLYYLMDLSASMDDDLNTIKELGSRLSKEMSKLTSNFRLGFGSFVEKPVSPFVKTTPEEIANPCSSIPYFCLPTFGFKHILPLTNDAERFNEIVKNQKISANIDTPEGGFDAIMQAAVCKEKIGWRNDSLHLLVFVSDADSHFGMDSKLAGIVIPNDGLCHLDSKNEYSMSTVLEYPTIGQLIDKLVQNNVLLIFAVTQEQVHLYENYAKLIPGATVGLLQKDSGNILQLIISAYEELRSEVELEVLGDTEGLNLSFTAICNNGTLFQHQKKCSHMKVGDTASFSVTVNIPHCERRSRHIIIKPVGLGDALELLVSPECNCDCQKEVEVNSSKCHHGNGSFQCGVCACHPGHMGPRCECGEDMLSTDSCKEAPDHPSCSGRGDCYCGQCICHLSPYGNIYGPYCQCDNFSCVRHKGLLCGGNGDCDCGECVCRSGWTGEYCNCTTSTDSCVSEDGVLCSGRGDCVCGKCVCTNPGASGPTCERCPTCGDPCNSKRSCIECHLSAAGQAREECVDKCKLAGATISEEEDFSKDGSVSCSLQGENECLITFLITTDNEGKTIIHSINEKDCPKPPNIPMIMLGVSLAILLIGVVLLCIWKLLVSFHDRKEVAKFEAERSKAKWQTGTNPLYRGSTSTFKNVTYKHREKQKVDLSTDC

Substance: control AAV9 viral particle (unmodified AAV9 capsid) (from UniProt Q6JC40 1-736; Q6JC40 138-736; Q6JC40 203-736) (complex)
- AAV9-GFP transduction (GFP+ cells after 24 h) of HEK293T, Hela or U87 cells pre-treated for 2 h with 20 µg/ml of a mouse anti-human αVβ6 functional blocking antibody, against PBS control: 50%

Source: PMC5676692
